{"source": "paper PMC6969876", "about": "“NADPH biosensor-based identification of an alcohol dehydrogenase variant with improved catalytic properties caused by a single charge reversal at the protein surface” (AMB Express, 2020)", "proteins": {"B1": {"name": "LbADH (Levilactobacillus brevis) (protein)", "chain": "SNRLDGKVAIITGGTLGIGLAIATKFVEEGAKVMITGRHSDVGEKAAKSVGTPDQIQFFQHDSSDEDGWTKLFDATEKAFGPVSTLVNNAGIAVNKSVEETTTAEWRKLLAVNLDGVFFGTRLGIQRMKNKGLGASIINMSSIEGFVGDPSLGAYNASKGAVRIMSKSAALDCALKDYDVRVNTVHPGYIKTPLVDDLPGAEEAMSQRTKTPMGHIGEPNDIAYICVYLASNESKFATGSEFVVDGGYTAQ"}, "B2": {"name": "LbADH (Levilactobacillus brevis; K72E) (protein)", "chain": "B1 chain with K71E"}}, "key": {"purified protein [1]": {"substrate": "COC(=O)CC(C)=O", "assay": "purified protein", "format": "biochemical, Levilactobacillus brevis", "settings": "0.3 mM NADPH, 1 mM MgCl2, 50 mM TEA pH 7.0, 30 °C"}, "purified protein [2]": {"substrate": "CC(=O)CCC(C)=O", "assay": "purified protein", "format": "biochemical, Levilactobacillus brevis", "settings": "0.3 mM NADPH, 1 mM MgCl2, 50 mM TEA pH 7.0, 30 °C"}}, "note": "Substitutions are numbered along the chain they refer to. Numbers in names are those of the source.", "data": [{"protein": "B1", "values": [{"measurement": "Km", "setting": "purified protein [1]", "result": "1130 ± 60", "unit": "µM"}, {"measurement": "Vmax", "setting": "purified protein [1]", "result": 154, "unit": "µmol/min/mg"}, {"measurement": "Km", "setting": "purified protein [2]", "result": "5100 ± 600", "unit": "µM"}, {"measurement": "Vmax", "setting": "purified protein [2]", "result": 148, "unit": "µmol/min/mg"}]}, {"protein": "B2", "values": [{"measurement": "Km", "setting": "purified protein [1]", "result": "670 ± 40", "unit": "µM"}, {"measurement": "Vmax", "setting": "purified protein [1]", "result": 221, "unit": "µmol/min/mg"}, {"measurement": "Km", "setting": "purified protein [2]", "result": "4300 ± 500", "unit": "µM"}, {"measurement": "Vmax", "setting": "purified protein [2]", "result": 173, "unit": "µmol/min/mg"}]}]}
